In publication PMC3035456:
Like-named read-outs stand apart in the source and are kept apart here.

Legend:
HuR123 = HuR123 (UniProt Q15717 1-306); experiment: SPR
HuR12 = HuR12 (UniProt Q15717 18-184); experiment: SPR
TIAR12 [1] = biological target: T1, TIAR12 (UniProt Q01085 1-181); experiment: size exclusion chromatography
T1 sequence: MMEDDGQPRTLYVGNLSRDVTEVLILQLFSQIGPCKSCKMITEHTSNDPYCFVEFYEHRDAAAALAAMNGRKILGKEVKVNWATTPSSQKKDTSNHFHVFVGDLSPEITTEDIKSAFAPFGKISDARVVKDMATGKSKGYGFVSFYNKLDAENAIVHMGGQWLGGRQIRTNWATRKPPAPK

TIAR123 = biological target: T2, TIAR123 (UniProt Q01085 1-283); experiment: SPR
T2 sequence: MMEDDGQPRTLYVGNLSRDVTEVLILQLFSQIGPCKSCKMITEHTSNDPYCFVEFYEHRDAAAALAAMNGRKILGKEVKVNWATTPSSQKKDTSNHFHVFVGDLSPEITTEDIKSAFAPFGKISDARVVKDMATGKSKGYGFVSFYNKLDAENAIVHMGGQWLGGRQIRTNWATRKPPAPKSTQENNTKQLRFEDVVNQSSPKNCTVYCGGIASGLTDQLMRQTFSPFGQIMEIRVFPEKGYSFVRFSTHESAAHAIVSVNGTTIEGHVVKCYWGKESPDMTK

TIAR12 [2] = biological target: T1, TIAR12; experiment: SPR
TIAR12 [3] = biological target: T1, TIAR12; experiment: SPR; remark: listed apart in the source

Sequence of HuR12 (Q15717 18-184): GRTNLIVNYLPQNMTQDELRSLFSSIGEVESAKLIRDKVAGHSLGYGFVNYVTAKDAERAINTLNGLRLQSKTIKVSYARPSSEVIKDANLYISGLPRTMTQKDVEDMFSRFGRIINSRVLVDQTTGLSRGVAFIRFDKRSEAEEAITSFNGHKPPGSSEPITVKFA
Sequence of HuR123 (Q15717 1-306): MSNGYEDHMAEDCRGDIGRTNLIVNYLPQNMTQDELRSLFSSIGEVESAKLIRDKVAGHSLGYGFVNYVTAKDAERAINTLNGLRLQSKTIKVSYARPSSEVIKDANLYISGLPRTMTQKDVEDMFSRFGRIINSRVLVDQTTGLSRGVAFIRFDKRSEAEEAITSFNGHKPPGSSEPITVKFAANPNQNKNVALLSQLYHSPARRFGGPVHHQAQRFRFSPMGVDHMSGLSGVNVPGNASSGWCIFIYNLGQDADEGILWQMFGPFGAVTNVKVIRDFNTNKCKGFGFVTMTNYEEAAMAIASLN

GGGGGGUUUUUUUUUUUUUUUUUGGGGG (ssRNA) [U-rich RNA 28-mer]
Kd (HuR123): 0.05 ± 0.001 nM

UUUUUUUUUUUUU (ssRNA) [U-rich RNA 13-mer]
Kd (HuR12): 195 ± 6.3 nM

UUUUUUUUUUUUU (ssRNA) [U-rich RNA 13-mer (solution)]
binding result (TIAR12 [1]): binds

GGGGGGUAUUUAUUAUUUAUUUAGGGGG (ssRNA) [AU-rich RNA 28-mer (TNF-alpha ARE)]
Kd (TIAR123): 14.1 ± 0.22 nM
Kd (HuR12): 506 ± 13.1 nM
Kd (TIAR12 [2]): 42.5 ± 0.63 nM
Kd (HuR123): 0.2 ± 0.007 nM

UUUUUUUUUUUUUUUUU (ssRNA) [U-rich RNA 17-mer]
Kd (HuR12): 40 ± 24 nM

TTTTTTTTTTTTTTTTTTTT (ssDNA) [T-rich DNA 20-mer]
Kd (TIAR12 [3]): 3.81 ± 0.74 nM
Kd (HuR12): 2640 ± 82.3 nM

UUUUUUUUUUUUUUUUUUUU (ssDNA, all deoxyuridine (2'-deoxy)) [U-rich DNA 20-mer]
Kd (HuR12): 20600 ± 1570 nM
Kd (TIAR12 [2]): 21.7 ± 0.38 nM

UUUUUUUU (ssRNA) [U-rich RNA 8-mer]
Kd (HuR12): 4700 ± 116 nM
